Laboratory results published in US20060246077 (published 2006).

Molecular target: MUC18-V5-His (extracellular domain) (human, UniProt P43121)
Assay: SPR, average

MUC18-V5-His (extracellular domain), sequence (P43121 1-559): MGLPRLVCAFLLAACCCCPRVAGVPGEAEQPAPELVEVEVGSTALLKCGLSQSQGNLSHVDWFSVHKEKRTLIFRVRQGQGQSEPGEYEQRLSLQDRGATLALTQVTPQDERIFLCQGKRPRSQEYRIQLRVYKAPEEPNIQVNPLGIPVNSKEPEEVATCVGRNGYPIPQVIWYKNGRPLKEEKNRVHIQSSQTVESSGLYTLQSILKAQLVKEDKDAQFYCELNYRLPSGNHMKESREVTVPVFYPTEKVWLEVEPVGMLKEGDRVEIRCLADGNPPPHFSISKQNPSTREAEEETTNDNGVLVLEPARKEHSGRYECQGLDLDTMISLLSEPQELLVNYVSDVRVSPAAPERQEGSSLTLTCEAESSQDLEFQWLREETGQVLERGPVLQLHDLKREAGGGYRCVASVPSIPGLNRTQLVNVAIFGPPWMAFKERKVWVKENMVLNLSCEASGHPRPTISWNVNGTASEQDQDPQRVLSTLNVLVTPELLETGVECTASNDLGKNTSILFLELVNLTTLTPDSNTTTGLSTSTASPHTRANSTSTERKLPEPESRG

B1: c3.19.1 (antibody, V domains shown)
VH: QVQLQESGPGLVKPSETLSLTCTVSGGSISSYYWSWIRQPPGKGLEWIGYIYYTWTSNYNPSLKSRVTISVDTSKNQFSLRLSSVTAADTAVYYCARDQGQWLLPDAFDIWGQGTMVTVSS
VL: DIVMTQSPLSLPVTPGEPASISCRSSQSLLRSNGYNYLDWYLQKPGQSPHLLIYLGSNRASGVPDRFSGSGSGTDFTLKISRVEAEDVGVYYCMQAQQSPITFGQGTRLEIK
  Kd: 0.61 nM
